Measurements from patent publication US20120171723A1 (published 2012).
Where “and” joins values, the source holds several entries; their conditions need not be identical. Identical values can stand only once.

Tests used:
Assay in all cases: cell-based or functional assay
[1] = target: FGFR3α-IIIc expressed on transfected BAF3 cells
[2] = target: FGFR1α-IIIb expressed on transfected BAF3 cells
[3] = target: FGFR1α-IIIc expressed on transfected BAF3 cells
[4] = target: FGFR2α-IIIb expressed on transfected BAF3 cells
[5] = target: FGFR2α-IIIc expressed on transfected BAF3 cells
[6] = target: FGFR3α-IIIb expressed on transfected BAF3 cells
[7] = target: FGFR3α-IIIc expressed on transfected BAF3 cells; remark: listed apart in the source

- EC50 of the cell proliferative response [1]: ~1 ng/mL and ~2 ng/mL
- Alamar Blue Units (proliferation of BAF3 cells expressing the receptor) at 1.6 ng/ml zFGF5 [2]: 0 Alamar Blue Units
- Alamar Blue Units (proliferation of BAF3 cells expressing the receptor) at 3.1 ng/ml zFGF5 [2]: 1.7 Alamar Blue Units
- Alamar Blue Units (proliferation of BAF3 cells expressing the receptor) at 6.2 ng/ml zFGF5 [2]: 1.3 Alamar Blue Units
- Alamar Blue Units (proliferation of BAF3 cells expressing the receptor) at 12.5 ng/ml zFGF5 [2]: 0 Alamar Blue Units
- Alamar Blue Units (proliferation of BAF3 cells expressing the receptor) at 25 ng/ml zFGF5 [2]: 10.9 Alamar Blue Units
- Alamar Blue Units (proliferation of BAF3 cells expressing the receptor) at 50 ng/ml zFGF5 [2]: 0 Alamar Blue Units
- Alamar Blue Units (proliferation of BAF3 cells expressing the receptor) at 100 ng/ml zFGF5 [2]: 0 Alamar Blue Units
- Alamar Blue Units (proliferation of BAF3 cells expressing the receptor) at 200 ng/ml zFGF5 [2]: 0 Alamar Blue Units
- Alamar Blue Units (proliferation of BAF3 cells expressing the receptor) at 1.6 ng/ml zFGF5 [3]: 2.6 Alamar Blue Units
- Alamar Blue Units (proliferation of BAF3 cells expressing the receptor) at 3.1 ng/ml zFGF5 [3]: 4.2 Alamar Blue Units
- Alamar Blue Units (proliferation of BAF3 cells expressing the receptor) at 6.2 ng/ml zFGF5 [3]: 14.2 Alamar Blue Units
- Alamar Blue Units (proliferation of BAF3 cells expressing the receptor) at 12.5 ng/ml zFGF5 [3]: 29.9 Alamar Blue Units
- Alamar Blue Units (proliferation of BAF3 cells expressing the receptor) at 25 ng/ml zFGF5 [3]: 86 Alamar Blue Units
- Alamar Blue Units (proliferation of BAF3 cells expressing the receptor) at 50 ng/ml zFGF5 [3]: 224 Alamar Blue Units
- Alamar Blue Units (proliferation of BAF3 cells expressing the receptor) at 100 ng/ml zFGF5 [3]: 488 Alamar Blue Units
- Alamar Blue Units (proliferation of BAF3 cells expressing the receptor) at 200 ng/ml zFGF5 [3]: 912 Alamar Blue Units
- Alamar Blue Units (proliferation of BAF3 cells expressing the receptor) at 1.6 ng/ml zFGF5 [4]: 0.2 Alamar Blue Units
- Alamar Blue Units (proliferation of BAF3 cells expressing the receptor) at 3.1 ng/ml zFGF5 [4]: 0.06 Alamar Blue Units
- Alamar Blue Units (proliferation of BAF3 cells expressing the receptor) at 6.2 ng/ml zFGF5 [4]: 0 Alamar Blue Units
- Alamar Blue Units (proliferation of BAF3 cells expressing the receptor) at 12.5 ng/ml zFGF5 [4]: 0.4 Alamar Blue Units
- Alamar Blue Units (proliferation of BAF3 cells expressing the receptor) at 25 ng/ml zFGF5 [4]: 0.2 Alamar Blue Units
- Alamar Blue Units (proliferation of BAF3 cells expressing the receptor) at 50 ng/ml zFGF5 [4]: 0.5 Alamar Blue Units
- Alamar Blue Units (proliferation of BAF3 cells expressing the receptor) at 100 ng/ml zFGF5 [4]: 1.3 Alamar Blue Units
- Alamar Blue Units (proliferation of BAF3 cells expressing the receptor) at 200 ng/ml zFGF5 [4]: 1.3 Alamar Blue Units
- Alamar Blue Units (proliferation of BAF3 cells expressing the receptor) at 1.6 ng/ml zFGF5 [5]: 241 Alamar Blue Units
- Alamar Blue Units (proliferation of BAF3 cells expressing the receptor) at 3.1 ng/ml zFGF5 [5]: 480 Alamar Blue Units
- Alamar Blue Units (proliferation of BAF3 cells expressing the receptor) at 6.2 ng/ml zFGF5 [5]: 715 Alamar Blue Units
- Alamar Blue Units (proliferation of BAF3 cells expressing the receptor) at 12.5 ng/ml zFGF5 [5]: 977 Alamar Blue Units
- Alamar Blue Units (proliferation of BAF3 cells expressing the receptor) at 25 ng/ml zFGF5 [5]: 1310 Alamar Blue Units
- Alamar Blue Units (proliferation of BAF3 cells expressing the receptor) at 50 ng/ml zFGF5 [5]: 1520 Alamar Blue Units
- Alamar Blue Units (proliferation of BAF3 cells expressing the receptor) at 100 ng/ml zFGF5 [5]: 1720 Alamar Blue Units
- Alamar Blue Units (proliferation of BAF3 cells expressing the receptor) at 200 ng/ml zFGF5 [5]: 1790 Alamar Blue Units
- Alamar Blue Units (proliferation of BAF3 cells expressing the receptor) at 1.6 ng/ml zFGF5 [6]: 0 Alamar Blue Units
- Alamar Blue Units (proliferation of BAF3 cells expressing the receptor) at 3.1 ng/ml zFGF5 [6]: 0 Alamar Blue Units
- Alamar Blue Units (proliferation of BAF3 cells expressing the receptor) at 6.2 ng/ml zFGF5 [6]: 0 Alamar Blue Units
- Alamar Blue Units (proliferation of BAF3 cells expressing the receptor) at 12.5 ng/ml zFGF5 [6]: 0 Alamar Blue Units
- Alamar Blue Units (proliferation of BAF3 cells expressing the receptor) at 25 ng/ml zFGF5 [6]: 1.4 Alamar Blue Units
- Alamar Blue Units (proliferation of BAF3 cells expressing the receptor) at 50 ng/ml zFGF5 [6]: 19 Alamar Blue Units
- Alamar Blue Units (proliferation of BAF3 cells expressing the receptor) at 100 ng/ml zFGF5 [6]: 189 Alamar Blue Units
- Alamar Blue Units (proliferation of BAF3 cells expressing the receptor) at 200 ng/ml zFGF5 [6]: 472 Alamar Blue Units
- Alamar Blue Units (proliferation of BAF3 cells expressing the receptor) at 1.6 ng/ml zFGF5 [7]: 1400 Alamar Blue Units
- Alamar Blue Units (proliferation of BAF3 cells expressing the receptor) at 3.1 ng/ml zFGF5 [7]: 2000 Alamar Blue Units
- Alamar Blue Units (proliferation of BAF3 cells expressing the receptor) at 6.2 ng/ml zFGF5 [7]: 2580 Alamar Blue Units
- Alamar Blue Units (proliferation of BAF3 cells expressing the receptor) at 12.5 ng/ml zFGF5 [7]: 3200 Alamar Blue Units
- Alamar Blue Units (proliferation of BAF3 cells expressing the receptor) at 25 ng/ml zFGF5 [7]: 3760 Alamar Blue Units
- Alamar Blue Units (proliferation of BAF3 cells expressing the receptor) at 50 ng/ml zFGF5 [7]: 3960 Alamar Blue Units
- Alamar Blue Units (proliferation of BAF3 cells expressing the receptor) at 100 ng/ml zFGF5 [7]: 4120 Alamar Blue Units
- Alamar Blue Units (proliferation of BAF3 cells expressing the receptor) at 200 ng/ml zFGF5 [7]: 4200 Alamar Blue Units
B1: human zFGF5 (FGF homolog polypeptide) (ligand)
chain: EENVDFRIHVENQTRARDDVSRKQLRLYQLYSRTSGKHIQVLGRRISARGEDGDKYAQLLVETDTFGSQVRIKGKETEFYLCMNRKGKLVGKPDGTSKECVFIEKVLENNYTALMSAKYSGWYVGFTKKGRPRKGPKTRENQQDVHFMKRYPKGQPELQKPFKYTTVTKRSRRIRPTHPA
